Data reported in patent US20190177417A1 (BIOATLA, published 2019).
Substitutions are numbered along the chain they refer to. Names and notes keep the numbering of the source. Each block holds one binder with its values, some of them ahead of it.

Tests used:
Axl protein [1] = target: T1, Axl protein (human, UniProt P30530 26-451); assay: ELISA, 1:9 dilution, pH 6.0 over pH 7.4
T1 construct: extracellular domain; also called human Axl; hAxl
T1 sequence (looked up): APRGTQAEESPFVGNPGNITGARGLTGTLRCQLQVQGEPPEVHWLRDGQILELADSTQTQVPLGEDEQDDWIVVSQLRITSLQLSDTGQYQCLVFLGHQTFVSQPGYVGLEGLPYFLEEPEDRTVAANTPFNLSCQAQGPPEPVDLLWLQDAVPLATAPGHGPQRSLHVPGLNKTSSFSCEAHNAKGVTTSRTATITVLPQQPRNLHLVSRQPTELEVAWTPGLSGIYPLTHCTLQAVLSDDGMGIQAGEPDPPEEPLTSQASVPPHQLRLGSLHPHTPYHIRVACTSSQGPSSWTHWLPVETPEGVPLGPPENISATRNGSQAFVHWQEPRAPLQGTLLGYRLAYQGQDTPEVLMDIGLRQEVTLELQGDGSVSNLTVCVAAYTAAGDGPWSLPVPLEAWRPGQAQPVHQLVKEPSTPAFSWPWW

Axl protein [2] = target: T1, Axl protein; assay: ELISA, 1:3 dilution, pH 6.0 over pH 7.4

Affinity ELISA CPE mutant ratio (1:9, pH 6.0/7.4) (Axl protein [1]): 2.94 ratio
Affinity ELISA CPE mutant ratio (1:3, pH 6.0/7.4) (Axl protein [2]): 3.18 ratio
B1: LC-F092S (antibody, V domains shown)
VH: EVQLVQSGAEVKKPGATVKISCKVSGYSFTGHTMNWIRQPPGKGLEWIGLIKPSNGGTSYNQKFKGRVTISADKSISTAYLQWSSLKASDTAMYYCAHGHYESYFAMDYWGQGTLVTVSS
VL: DIQMTQSPSSLSASVGDRVTITCKASQDVSSAVAWYQQKPGQAPRLLIYWASTRHTGVPSRFSGSGSGTEFTLTISSLQPDDFATYYCQEHSSTPLTFGQGTKVEIK

Affinity ELISA CPE mutant ratio (1:9, pH 6.0/7.4) (Axl protein [1]): 1.77 ratio
Affinity ELISA CPE mutant ratio (1:3, pH 6.0/7.4) (Axl protein [2]): 1.42 ratio
B2: LC-T094C (antibody, V domains shown)
VH: B1 VH
VL: B1 VL with S92F, T94C

Affinity ELISA CPE mutant ratio (1:9, pH 6.0/7.4) (Axl protein [1]): 2.08 ratio
Affinity ELISA CPE mutant ratio (1:3, pH 6.0/7.4) (Axl protein [2]): 2.8 ratio
B3: LC-H091L (antibody, V domains shown)
VH: B1 VH
VL: B1 VL with H91L, S92F

Affinity ELISA CPE mutant ratio (1:9, pH 6.0/7.4) (Axl protein [1]): 2.44 ratio
Affinity ELISA CPE mutant ratio (1:3, pH 6.0/7.4) (Axl protein [2]): 2.17 ratio
B4: LC-L096G (antibody, V domains shown)
VH: B1 VH
VL: B1 VL with S92F, L96G

Affinity ELISA CPE mutant ratio (1:9, pH 6.0/7.4) (Axl protein [1]): 2.63 ratio
Affinity ELISA CPE mutant ratio (1:3, pH 6.0/7.4) (Axl protein [2]): 2.35 ratio
B5: LC-P095C (antibody, V domains shown)
VH: B1 VH
VL: B1 VL with S92F, P95C

Affinity ELISA CPE mutant ratio (1:9, pH 6.0/7.4) (Axl protein [1]): 2.18 ratio
Affinity ELISA CPE mutant ratio (1:3, pH 6.0/7.4) (Axl protein [2]): 2.88 ratio
B6: LC-L096R (antibody, V domains shown)
VH: B1 VH
VL: B1 VL with S92F, L96R

Affinity ELISA CPE mutant ratio (1:9, pH 6.0/7.4) (Axl protein [1]): 7.51 ratio
Affinity ELISA CPE mutant ratio (1:3, pH 6.0/7.4) (Axl protein [2]): 7.12 ratio
B7: LC-P095E (antibody, V domains shown)
VH: B1 VH
VL: B1 VL with S92F, P95E

Affinity ELISA CPE mutant ratio (1:9, pH 6.0/7.4) (Axl protein [1]): 2.14 ratio
Affinity ELISA CPE mutant ratio (1:3, pH 6.0/7.4) (Axl protein [2]): 2.24 ratio
B8: LC-A051I (antibody, V domains shown)
VH: B1 VH
VL: B1 VL with A51I, S92F

Affinity ELISA CPE mutant ratio (1:9, pH 6.0/7.4) (Axl protein [1]): 2.99 ratio
Affinity ELISA CPE mutant ratio (1:3, pH 6.0/7.4) (Axl protein [2]): 2.52 ratio
B9: LC-P095A (antibody, V domains shown)
VH: B1 VH
VL: B1 VL with S92F, P95A

Affinity ELISA CPE mutant ratio (1:9, pH 6.0/7.4) (Axl protein [1]): 4.05 ratio
Affinity ELISA CPE mutant ratio (1:3, pH 6.0/7.4) (Axl protein [2]): 3.09 ratio
B10: LC-T097I (antibody, V domains shown)
VH: B1 VH
VL: B1 VL with S92F, T97I

Affinity ELISA CPE mutant ratio (1:9, pH 6.0/7.4) (Axl protein [1]): 2.12 ratio
Affinity ELISA CPE mutant ratio (1:3, pH 6.0/7.4) (Axl protein [2]): 1.6 ratio
B11: LC-H091F (antibody, V domains shown)
VH: B1 VH
VL: B1 VL with H91F, S92F

Affinity ELISA CPE mutant ratio (1:9, pH 6.0/7.4) (Axl protein [1]): 3.02 ratio
Affinity ELISA CPE mutant ratio (1:3, pH 6.0/7.4) (Axl protein [2]): 4 ratio
B12: LC-H091C (antibody, V domains shown)
VH: B1 VH
VL: B1 VL with H91C, S92F

Affinity ELISA CPE mutant ratio (1:9, pH 6.0/7.4) (Axl protein [1]): 2.13 ratio
Affinity ELISA CPE mutant ratio (1:3, pH 6.0/7.4) (Axl protein [2]): 1.87 ratio
B13: LC-P095V (antibody, V domains shown)
VH: B1 VH
VL: B1 VL with S92F, P95V

Affinity ELISA CPE mutant ratio (1:9, pH 6.0/7.4) (Axl protein [1]): 2.2 ratio
Affinity ELISA CPE mutant ratio (1:3, pH 6.0/7.4) (Axl protein [2]): 1.41 ratio
B14: LC-A051N (antibody, V domains shown)
VH: B1 VH
VL: B1 VL with A51N, S92F

Affinity ELISA CPE mutant ratio (1:9, pH 6.0/7.4) (Axl protein [1]): 2.26 ratio
Affinity ELISA CPE mutant ratio (1:3, pH 6.0/7.4) (Axl protein [2]): 2.15 ratio
B15: LC-P095W (antibody, V domains shown)
VH: B1 VH
VL: B1 VL with S92F, P95W

Affinity ELISA CPE mutant ratio (1:9, pH 6.0/7.4) (Axl protein [1]): 3.47 ratio
Affinity ELISA CPE mutant ratio (1:3, pH 6.0/7.4) (Axl protein [2]): 3.84 ratio
B16: LC-P095K (antibody, V domains shown)
VH: B1 VH
VL: B1 VL with S92F, P95K

Affinity ELISA CPE mutant ratio (1:9, pH 6.0/7.4) (Axl protein [1]): 2.15 ratio
Affinity ELISA CPE mutant ratio (1:3, pH 6.0/7.4) (Axl protein [2]): 1.55 ratio
B17: LC-H091I (antibody, V domains shown)
VH: B1 VH
VL: B1 VL with H91I, S92F

Affinity ELISA CPE mutant ratio (1:9, pH 6.0/7.4) (Axl protein [1]): 2.01 ratio
Affinity ELISA CPE mutant ratio (1:3, pH 6.0/7.4) (Axl protein [2]): 1.77 ratio
B18: LC-H091Q (antibody, V domains shown)
VH: B1 VH
VL: B1 VL with H91Q, S92F

Affinity ELISA CPE mutant ratio (1:9, pH 6.0/7.4) (Axl protein [1]): 2.89 ratio
Affinity ELISA CPE mutant ratio (1:3, pH 6.0/7.4) (Axl protein [2]): 3.95 ratio
B19: LC-P095D (antibody, V domains shown)
VH: B1 VH
VL: B1 VL with S92F, P95D

Affinity ELISA CPE mutant ratio (1:9, pH 6.0/7.4) (Axl protein [1]): 3.51 ratio
Affinity ELISA CPE mutant ratio (1:3, pH 6.0/7.4) (Axl protein [2]): 2.84 ratio
B20: LC-P095S (antibody, V domains shown)
VH: B1 VH
VL: B1 VL with S92F, P95S

Affinity ELISA CPE mutant ratio (1:9, pH 6.0/7.4) (Axl protein [1]): 2.09 ratio
Affinity ELISA CPE mutant ratio (1:3, pH 6.0/7.4) (Axl protein [2]): 2.5 ratio
B21: LC-P095T (antibody, V domains shown)
VH: B1 VH
VL: B1 VL with S92F, P95T

Affinity ELISA CPE mutant ratio (1:9, pH 6.0/7.4) (Axl protein [1]): 2.75 ratio
Affinity ELISA CPE mutant ratio (1:3, pH 6.0/7.4) (Axl protein [2]): 2.5 ratio
B22: LC-P095H (antibody, V domains shown)
VH: B1 VH
VL: B1 VL with S92F, P95H

Affinity ELISA CPE mutant ratio (1:9, pH 6.0/7.4) (Axl protein [1]): 1.57 ratio
Affinity ELISA CPE mutant ratio (1:3, pH 6.0/7.4) (Axl protein [2]): 1.92 ratio
B23: LC-A051P (antibody, V domains shown)
VH: B1 VH
VL: B1 VL with A51P, S92F
